Data: IntAct's records for PubMed 20802461

B1: Mitogen-activated protein kinase ERK-A (Drosophila melanogaster (Fruit fly)), P40417 (parent)
chain: MEEFNSSGSVVNGTGSTEVPQSNAEVIRGQIFEVGPRYIKLAYIGEGAYGMVVSADDTLTNQRVAIKKISPFEHQTYCQRTLREITILTRFKHENIIDIRDILRVDSIDQMRDVYIVQCLMETDLYKLLKTQRLSNDHICYFLYQILRGLKYIHSANVLHRDLKPSNLLLNKTCDLKICDFGLARIADPEHDHTGFLTEYVATRWYRAPEIMLNSKGYTKSIDIWSVGCILAEMLSNRPIFPGKHYLDQLNHILGVLGSPSRDDLECIINEKARNYLESLPFKPNVPWAKLFPNADALALDLLGKMLTFNPHKRIPVEEALAHPYLEQYYDPGDEPVAEVPFRINMENDDISRDALKSLIFEETLKFKERQPDNAP

How the values were obtained:
Conditions in all cases: with arrb2_human ARRB2, P32121
[1] = variants of: B1
[2] = variants of: B1; remark: listed apart in the source
[3] = variants of: B1; remark: listed apart in the source

**Q.** With T198E as the variant, how does the “effect of a mutation on the interaction” value [1] read?
**A.** disrupting interaction

**Q.** What about the “effect of a mutation on the interaction” value [2] of the same variant?
**A.** disrupting interaction strength

**Q.** For Y200E, which “effect of a mutation on the interaction” value [1] is on record?
**A.** disrupting interaction

**Q.** And the “effect of a mutation on the interaction” value [3]?
**A.** decreasing interaction
